How the values were obtained:
[1] = target: FolR1 (folate receptor alpha) on FolR1-positive KB or Igrov1 cells (UniProt P15328 25-234, limits assumed); assay: cell-based or functional assay
[2] = target: Muc16 on Muc16-positive OVCAR3 cells (UniProt Q8WXI7 1-14507, limits assumed); assay: cell-based or functional assay

Sequence of FolR1 (folate receptor alpha) on FolR1-positive KB or Igrov1 cells (P15328 25-234 limits assumed): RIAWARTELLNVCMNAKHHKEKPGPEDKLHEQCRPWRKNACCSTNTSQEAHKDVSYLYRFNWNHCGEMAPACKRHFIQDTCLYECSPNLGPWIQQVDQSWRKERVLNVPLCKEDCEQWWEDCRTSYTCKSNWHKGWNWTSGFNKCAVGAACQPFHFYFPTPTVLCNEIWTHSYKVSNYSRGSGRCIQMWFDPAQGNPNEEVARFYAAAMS

| Binder | Cell Killing on FolR1+ Igrov1 Cells, EC50 [1] [nM] | Cell Killing on OVCAR3 (Muc16+), EC50 [2] |
| --- | --- | --- |
| Conjugate 1: anti-FolR1-Compd 101 ADC (FolRα antibody 1848-B10 ADC, DAR 4) (antibody, human IgG1, kappa, V domains shown, pAMF (para-azidomethyl-L-phenylalanine) at Y180 and F404 conjugated to Compound 101 (by Table 16; Tables 8 and 10 say Y180 and K42 sites)) VH: EVQLVESGGGLVQPGGSLRLSCAASGFNTTTKSIHWVRQAPGKGLEWVGEIYPRDGITDYADSVKGRFTISADTSKNTAYLQMNSLRAEDTAVYYCARGGWHWRSGYSYYLDYWGQGTLVTVSS VL: not shown | 0.03 |  |
| Conjugate 49: anti-MUC16 sofituzumab+ Compd 401/Compd 101 (sofituzumab HC:4x pAMF iADC, 70% TLR agonist, DAR 3.9) (antibody, human IgG1, kappa, V domains shown, pAMF at Y180 and F404 conjugated to a mixture of Compound 401 and Compound 101) VH: EVQLVESGGGLVQPGGSLRLSCAASGYSITNDYAWNWVRQAPGKGLEWVGYISYSGYTTYNPSLKSRFTISRDTSKNTLYLQMNSLRAEDTAVYYCARWTSGLDYWGQGTLVTVSS VL: DIQMTQSPSSLSASVGDRVTITCKASDLIHNWLAWYQQKPGKAPKLLIYGATSLETGVPSRFSGSGSGTDFTLTISSLQPEDFATYYCQQYWTTPFTFGQGTKVEIKR |  | 0.1 |
